Biological target: T1, acetylcholine receptor alpha 7 sub-unit (AchR alpha7) (UniProt P36544 23-502)
T1 construct: whole, on cells
Experiment: flow cytometry on AchR alpha7-expressing HEK293 cells, 30 min at 4 C

T1 sequence (P36544 23-502): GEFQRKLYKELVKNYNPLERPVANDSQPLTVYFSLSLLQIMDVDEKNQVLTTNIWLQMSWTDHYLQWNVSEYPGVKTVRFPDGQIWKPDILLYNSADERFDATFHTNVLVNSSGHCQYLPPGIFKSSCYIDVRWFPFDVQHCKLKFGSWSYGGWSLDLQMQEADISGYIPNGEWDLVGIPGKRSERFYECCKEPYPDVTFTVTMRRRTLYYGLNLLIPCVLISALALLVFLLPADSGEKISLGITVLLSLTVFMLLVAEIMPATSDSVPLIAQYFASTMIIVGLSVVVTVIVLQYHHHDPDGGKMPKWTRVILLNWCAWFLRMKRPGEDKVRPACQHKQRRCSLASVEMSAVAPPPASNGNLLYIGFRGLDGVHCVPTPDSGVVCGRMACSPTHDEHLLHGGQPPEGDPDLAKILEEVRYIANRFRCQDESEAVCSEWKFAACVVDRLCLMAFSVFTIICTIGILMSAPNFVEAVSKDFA

B1: VHH2 (MA peptide, VHH A12, StrepTag, NV; lacking the RDP1 sequence) (VHH)
chain: MAEVQLQASGGGLAQPGGSLRLSVTVSGSIDVINNMAWYRQAPGNARELVATITSGFSTNYASSVKGRFTISRDNAKKAVYLQMNSLKPEDTADYYSKVHLIRLGAARAYDYWGQGTQVTVSGGGSAWSHPQFEKAAARRVNRSEPTQHNLRGTGREVSVTPQSGKIISSWEVHGQQTRL
B1: no binding (tested: 20 pg).

— patent US20210040187A1 (INSTITUT PASTEUR, published 2021)
